Earlier results as cited in PMC9760430, “A stapled chromogranin A-derived peptide homes in on tumors that express αvβ6 or αvβ8 integrins” (International Journal of Biological Sciences, 2023).
pKi: −log10 of the molar value.

Legend:
[1] = biological target: integrin αvβ8 (Homo sapiens) (UniProt P06756); settings: cited from earlier work
[2] = biological target: integrin αvβ6 (Homo sapiens) (UniProt P06756); settings: cited from earlier work
Sequence of integrin αvβ6 (Homo sapiens) (P06756 31-992, chain 1 of 2): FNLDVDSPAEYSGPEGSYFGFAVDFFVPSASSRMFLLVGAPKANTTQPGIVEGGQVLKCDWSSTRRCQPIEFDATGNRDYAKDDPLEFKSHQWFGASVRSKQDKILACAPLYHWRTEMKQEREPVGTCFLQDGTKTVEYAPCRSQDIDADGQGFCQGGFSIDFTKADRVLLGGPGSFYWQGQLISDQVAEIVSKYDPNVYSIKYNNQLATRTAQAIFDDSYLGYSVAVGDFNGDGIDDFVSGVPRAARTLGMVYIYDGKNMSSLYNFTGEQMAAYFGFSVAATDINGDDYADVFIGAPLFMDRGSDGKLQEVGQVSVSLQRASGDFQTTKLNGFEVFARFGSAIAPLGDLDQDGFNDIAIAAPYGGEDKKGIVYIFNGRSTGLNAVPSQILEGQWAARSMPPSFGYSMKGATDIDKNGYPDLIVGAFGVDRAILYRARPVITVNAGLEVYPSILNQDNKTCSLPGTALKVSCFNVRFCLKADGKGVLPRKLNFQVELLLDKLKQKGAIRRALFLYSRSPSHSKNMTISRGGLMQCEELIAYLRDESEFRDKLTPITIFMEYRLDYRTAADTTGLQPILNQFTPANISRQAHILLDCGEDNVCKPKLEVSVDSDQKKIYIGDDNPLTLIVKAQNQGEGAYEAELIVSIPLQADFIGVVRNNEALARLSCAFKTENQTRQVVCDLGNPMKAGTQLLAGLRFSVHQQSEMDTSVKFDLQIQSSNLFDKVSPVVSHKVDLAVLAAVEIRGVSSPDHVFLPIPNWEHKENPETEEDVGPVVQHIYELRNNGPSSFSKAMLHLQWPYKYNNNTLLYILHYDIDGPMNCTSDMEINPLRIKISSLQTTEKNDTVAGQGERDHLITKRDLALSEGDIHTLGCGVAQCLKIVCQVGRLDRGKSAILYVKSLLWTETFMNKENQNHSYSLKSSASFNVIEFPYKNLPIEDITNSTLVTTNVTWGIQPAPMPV
Sequence of integrin αvβ6 (Homo sapiens) (P18564 22-709, chain 2 of 2, further chain): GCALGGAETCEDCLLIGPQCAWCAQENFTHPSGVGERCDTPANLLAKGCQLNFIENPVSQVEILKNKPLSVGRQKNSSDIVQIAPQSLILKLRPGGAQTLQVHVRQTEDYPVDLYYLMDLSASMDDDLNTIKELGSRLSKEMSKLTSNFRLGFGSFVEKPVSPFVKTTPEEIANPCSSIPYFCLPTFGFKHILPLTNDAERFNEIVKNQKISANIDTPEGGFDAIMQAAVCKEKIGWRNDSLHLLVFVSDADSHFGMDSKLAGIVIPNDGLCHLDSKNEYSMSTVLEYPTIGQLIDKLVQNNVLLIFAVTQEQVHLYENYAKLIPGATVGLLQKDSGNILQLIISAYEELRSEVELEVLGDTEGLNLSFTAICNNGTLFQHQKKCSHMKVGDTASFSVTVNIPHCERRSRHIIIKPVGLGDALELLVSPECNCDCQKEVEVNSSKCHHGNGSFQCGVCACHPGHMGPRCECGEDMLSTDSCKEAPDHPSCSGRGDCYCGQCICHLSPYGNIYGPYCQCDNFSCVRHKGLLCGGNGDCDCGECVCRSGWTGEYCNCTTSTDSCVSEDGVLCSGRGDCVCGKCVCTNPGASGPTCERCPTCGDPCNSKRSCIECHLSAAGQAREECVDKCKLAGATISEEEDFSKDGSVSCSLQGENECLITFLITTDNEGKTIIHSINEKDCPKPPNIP

Sequence of chromogranin A-derived peptide 5 (P10645 57-81): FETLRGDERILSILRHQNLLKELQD
Sequence of integrin αvβ8 (Homo sapiens) (P06756 31-992, chain 1 of 2): as the sequence (P06756 31-992, chain 1 of 2) above
Sequence of integrin αvβ8 (Homo sapiens) (P26012 43-684, chain 2 of 2, further chain): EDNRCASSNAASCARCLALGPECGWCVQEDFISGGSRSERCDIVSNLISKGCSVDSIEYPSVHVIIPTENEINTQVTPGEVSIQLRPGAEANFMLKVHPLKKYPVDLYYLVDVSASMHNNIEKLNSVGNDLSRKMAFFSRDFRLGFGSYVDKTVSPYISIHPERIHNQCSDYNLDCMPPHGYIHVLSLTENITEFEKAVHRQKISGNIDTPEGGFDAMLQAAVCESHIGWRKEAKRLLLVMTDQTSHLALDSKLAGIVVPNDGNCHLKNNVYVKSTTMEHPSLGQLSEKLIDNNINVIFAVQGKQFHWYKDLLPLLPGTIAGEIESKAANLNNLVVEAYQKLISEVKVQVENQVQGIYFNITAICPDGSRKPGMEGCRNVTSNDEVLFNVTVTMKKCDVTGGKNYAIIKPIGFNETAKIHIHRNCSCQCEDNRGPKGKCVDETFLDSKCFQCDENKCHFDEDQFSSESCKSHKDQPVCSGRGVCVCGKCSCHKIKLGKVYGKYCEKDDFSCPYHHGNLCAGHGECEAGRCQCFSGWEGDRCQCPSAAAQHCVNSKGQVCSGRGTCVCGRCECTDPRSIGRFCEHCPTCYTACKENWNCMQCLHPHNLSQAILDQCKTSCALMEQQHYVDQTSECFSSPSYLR

## chromogranin A-derived peptide 5 (from UniProt P10645)
[1]
  pKi: 8.49
[2]
  pKi: 9.22
